Source: patent US20210292393A1 (published 2021)
Substitutions are numbered along the chain they refer to.

B1: antibody 547 (antibody, V domains shown)
VH: QVHLVESGGGVVQPGRSLRLSCAASGFALSSYAMHWVRQPPGKGLEWVALISYDGSVKKYADSVKGRITVSGDNSRNTLHLQINSLRADDTAVYYCVRGGVSGPNSFDLWGHGTMVTVSS
VL: DVVLTQSPLSLPVTLGQPASISCRSSQSLEYSVGNTYVNWFQQRPGQSPRRLIYKVSNRDSGVPDRFSGSGSGTDFTLQISRVEADDVGIYYCMQGTHWPVTFGQGTKVEIK
B2: antibody 548 (antibody, V domains shown)
VH: QVQLVESGGGVVQPGRSLRLSCAASGFTFSSYAMHWVRQAPGKGLEWVAVISYDGSNKYYADSVKGRFTISRDNSKNTLYLQMNNLRAEDTAVYYCAKSGSGSYLSAFDIWGQGTMVTVSS
VL: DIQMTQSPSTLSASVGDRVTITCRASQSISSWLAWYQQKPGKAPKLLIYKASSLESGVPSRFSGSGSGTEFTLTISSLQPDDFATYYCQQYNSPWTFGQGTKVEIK
B3: antibody 556 (antibody, V domains shown)
VH: QVQLVESGGGVVQPGRSLRLSCAASGFTFSSYAMHWVRQAPGKGLEWVAVISYDGSDKYYADSVKGRVTISRDNSKNTLYLQMNSLRVEDTAVFYCAKDDCSGGVCFPDYWGQGTLVTVSS
VL: QSALTQPASVSGSPGQSITISCTGTSSDVGGYNYVSWYQQHPGKAPKLMIYEVSIRPSGVSNRFSGSKSGNTASLTISGLQAEDEAAYYCSSYTSSSTLVFGGGTKLTVL
B4: antibody 560 (antibody, V domains shown)
VH: EVQLVESGGGLVQPGGSLRLSCAASGFTISSNYMSWVRQAPGKGLEWVSVIYSGGSTYYADSVKGRFTISRDNSKNTLYLQMNSLRAEDTAVYYCAREEGEWEKDYYGMDVWGQGTTVTVSS
VL: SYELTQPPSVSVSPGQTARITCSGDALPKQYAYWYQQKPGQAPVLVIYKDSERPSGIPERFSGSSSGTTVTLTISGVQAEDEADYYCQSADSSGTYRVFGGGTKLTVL
B5: antibody 563 (antibody, V domains shown)
VH: QVQLVESGGGVVQPGRSLRLSCAASGFTFSSYAMHWVRQAPGKGLEWVAVISDDGSNKYYADSVKGRFTISRDNSKNTLYLQMNSLRAEDTAVYYCARDIVATIRRLFDYWGQGTLVTVSS
VL: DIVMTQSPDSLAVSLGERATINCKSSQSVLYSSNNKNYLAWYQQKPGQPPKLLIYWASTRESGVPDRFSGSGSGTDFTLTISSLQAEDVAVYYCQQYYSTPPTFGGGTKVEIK
B6: antibody 564 (antibody, V domains shown)
VH: QVHLVESGGGVVQPGKSLRLSCAASGFIFSSFGMHWVRQPPGKGLEWLAVVSYDGSVTKYSDSFEGRFTISRDNSKNTLYLQMDSLRPEDTAVYYCAKGQGTNLLHYWGQGILVTVSS
VL: DVVLSQSPLSLPVTLGQPASISCRSSESLVYTDGDTYLHWFHQRPGQSPRRLIFKVSHRESGVPDRISGSGSGTDFTLKISRVEAEDVGVYYCMQGTHWPFTFGPGTKVDIK
B7: antibody 565 (antibody, V domains shown)
VH: EVQLVESGGGLVQPGGSLRLSCTASGFTLSDHYMDWVRQAPGKGLEWVARTRNKVNSYSTEYAASVKGRFSMSRDDSKNSLYLQMTRLQTDDTAVYYCARSLMILGARGASDYWGQGTLVTVSS
VL: DIQMTQSPSTLSASAGDRVTITCRASQNIDSWLAWYQQHPGKAPNLLIYKASFLQSGVPSRFSGSGSGTEFTLTISSLQPDDFATYYCQQYNSYPVTFGQGTRLEIK
B8: antibody 566 (antibody, V domains shown)
VH: QVQLVQSGAEVKKPGASVKVSCKASGYTFTSYAMHWVRQAPGQRLEWMGWINAGNGNTKYSQKFQGRVTITRDTSASTAYMELSSLRSEDTAVYYCARDLGVAVTLHPADFDYWGQGTLVTVSS
VL: QSVLTQPPSVSGAPGQRVTISCTGSSSNIGAGYDVHWYQQLPGTAPKLLIYDNSNRPSGVPDRFSGSKSGTSASLAITGLQAEDEADYYCQSYDSSLSAVVFGGGTKLTVL
B9: antibody 569 (antibody, V domains shown)
VH: B2 VH with N85S, K98R, S99A, G100S, S103G, L105Q, S106G, A107P, I110P, M116L
VL: EIVLTQSPATLSLSPGERATLSCRASQSVSSYLAWYQQKPGQAPRLLIYDASNRATGIPARFSGSGSGTDFTLTISSLEPEDFAVYYCQQRSSPFGPGTKVDIK
B10: antibody 571 (antibody, V domains shown)
VH: EVQLVESGGGLVQPGGSLRLSCAASGFTFSTYWMTWVRQAPGKGLEWVANIKHDGSGKYHVDSVKGRFTISRDNAKNSLYLQMNSLRAEDTAVYYCTRDEGGWYDYWGQGTLVTVSS
VL: QSALTQPASVSGSPGQSITISCTGTSSDVGSYNPVSWYQQHPGKAPKVMIYEGSKRPSGVSNRFSGSKSGNTASLTISGLQAEDEADYYCCSYARSSTFVVFGGGTKLTVL
B11: anti-SARS-CoV-2 antibody 456 (antibody, V domains shown)
VH: QVQLQQWGAGLLKPSETLSLTCAVYGGSFSGYYWSWIRQPPGKGLEWIGEINHSGSTNYNPSLKSRVTISVDTSKNQFSLKLSSVTAADTAVYYCARDGSGSYYLSYYFDYWGQGTLVTVSS
VL: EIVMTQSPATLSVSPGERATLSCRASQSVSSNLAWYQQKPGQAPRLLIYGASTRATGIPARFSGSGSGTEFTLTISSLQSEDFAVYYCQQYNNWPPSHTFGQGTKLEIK
B12: anti-SARS-CoV-2 antibody 470 (antibody, V domains shown)
VH: not shown
VL: B3 VL with G31S, Y34L, I55K, A87D, S91C, T94A, S95G
B13: anti-SARS-CoV-2 antibody 471 (antibody, V domains shown)
VH: QVQLVESGGGVVQPGRSLRLSCAASGFTFSSYAMHWVRQAPGKGLEWVAVISYDGSNKYYADSVKGRFTISRDNSKNTLYLQMNSLRAEDTAVYYCAKQYSPYCSGGSCYSGASDYWGQGTLVTVSS
VL: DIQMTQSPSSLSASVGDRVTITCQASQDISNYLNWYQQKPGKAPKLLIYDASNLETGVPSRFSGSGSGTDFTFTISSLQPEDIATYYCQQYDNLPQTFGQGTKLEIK
B14: anti-SARS-CoV-2 antibody 475 (antibody, V domains shown)
VH: QVQLVESGGGVVQPGRSLRLSCAASGFTFSSYAMHWVRQAPGKGLEWVTFISHEGSNKYYADSVKGRFTISRDNSKNTLYLQMNSLRAEDTAVYYCARTFEYSSSSATGDFDYWGQGTLVTVSS
VL: B8 VL with D52G, A99G
B15: anti-SARS-CoV-2 antibody 476 (antibody, V domains shown)
VH: QVQLVQSGSELKKPGASVKVSCKASGYTFTSYAMNWVRQAPGQGLEWMGWINTNTGNPTYAQGFTGRFVFSLDTSVSTAYLQISSLKAEDTGVYYCARDHELPNSSSWFGHFEYWGQGTLVTVSS
VL: SYELTQPPSVSVSPGQTARITCSGDALPKQYAYWYQQKAGQAPVLVIYKDSERRSGIPERFSGSSSGTTVTLTISGVQAEDEADYYCQSADSSGTSVVFGGGTKLTVL
B16: anti-SARS-CoV-2 antibody 477 (antibody, V domains shown)
VH: QVQLVESGGGVVQPGRSLRLSCAASGITFSSYAMHWVRQAPGKGLEWVAVISYDGSDKYHADSVKGRFAISRDNSKNTLYLQMNSLRAEDTAVYYCAKDKGIAVAGTGWIRPDPEYYFDYWGQGTLVTVSS
VL: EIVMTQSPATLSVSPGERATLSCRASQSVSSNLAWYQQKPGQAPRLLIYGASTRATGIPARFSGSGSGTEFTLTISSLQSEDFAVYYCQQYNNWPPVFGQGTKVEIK
B17: anti-SARS-CoV-2 antibody 480 (antibody, V domains shown)
VH: B2 VH with S56N, N85S, A97V, K98R, S99T, G100N, L105Y, S106A, I110Y, M116L
VL: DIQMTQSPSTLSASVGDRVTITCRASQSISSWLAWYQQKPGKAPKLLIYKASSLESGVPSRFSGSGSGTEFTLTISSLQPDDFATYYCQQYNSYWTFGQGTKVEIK
B18: antibody 378 (antibody, V domains shown)
VH: QVQLVQSGAEVKKPGASVKVSCKASGYTFTSYYMHWVRQAPGQGLEWMGIINPSGGSTSYAQKFQGRVTMTRDTSTSTVYMELSSLRSEDTAVYYCARDSGGMDDFWSGYYSPGGDYWGQGTLVTVSS
VL: B3 VL with G31S, Y34L, V53G, I55K, A87D, S91C, T94A, S95G, L99W
B19: antibody 380 (antibody, V domains shown)
VH: QVQLVESGGGVVQPGRSLRLSCAASGFTLKNYGMHWVRQAPGKGLEWVIVLSFDGSDEYKADSVRGRFTVSRDNSKNTLFLQMNSLRPDDTAVYYCAREQPTMIEGGRGPFDIWGQGTMVTVSS
VL: EVVMTQSPATLSVSPGDRATLSCRASQGVNSNLAWYQQKPGQAPRLLIYAASTRATGIPARFSASGSGTHFTLTISSLQSEDFAVYYCLQYNNWPPWTFGQGTKLEIK
B20: antibody 385 (antibody, V domains shown)
VH: B2 VH with M34I, N85S, K98R, S99P, G100R, L105W, S106G
VL: QSVLTQPPSVSGAPGQRVTISCTGSSSNIGARYDVHWYQQLPGTAPKLLIYGNSNRPSGVPDRFSGSKSGTSASLAITGLQAEDEADYYCQSYDSSLRGVFGGGTKLTVL
B21: antibody 395 (antibody, V domains shown)
VH: QVQLVQSGSELKKPGASVKLSCQASGYTFSNHAMNWVRQAPGQGLEWMGWINTNTGNPTYAQGFTGRFVFSLDTSVGTAYLHISSLKAEDTAFYYCARASARPGVATNLDFWGQGTLVVVSS
VL: DIQMTQSPSSLSASVGDRVTITCRTSQNIDNYLNWYQQKPGKAPNLLIYAASRLHSGVPSRFSGSGSGTDFTLIISSLQPEDLATYYCQQSYSNPLTFGPGTKVDIR
B22: antibody 405 (antibody, V domains shown)
VH: not shown
VL: QSALTQPRSVSGSPGQSVTISCTGTSSDVGGYNYVSWYQQHPGKAPKLMIYDVSKRPSGVPDRFSGSKSGNTASLTISGLQAEDEADYYCCSYAGSYNVVFGGGTKLTVL
B23: antibody 407 (antibody, V domains shown)
VH: QVQLVESGGGVVQPGRSLRLSCAASGFTFSSYGMHWVRQAPGKGLEWVAVISYDGSNKYYADSVKGRFTISRDNSKNTLYLQMNSLRAEDTAVYYCAKCGWDYDFWVGQGYGMDVWGQGTTVTVSS
VL: not shown
B24: antibody 409 (antibody, V domains shown)
VH: QVTLRESGPALVKPTQTLTLTCTFSGFSLSTSGMCVSWIRQPPGKALEWLALIDWDDDKYYSTSLKTRLTISKDTSKNQVVLTMTNMDPVDTATYYCARTTYYYVSGRRAEFDPWGQGTLVTVSS
VL: NFMLTQPHSVSESPGKTVTISCTGSSGSIASNYVQWYQQRPGSAPTTVIYEDNQRPSGVPDRFSGSIDSSSNSASLTISGLKTEDEADYYCQSYDSSNQGVFGGGTKLTVL

Target: SARS-CoV-2 full length spike (S) protein, wild type, expressed on the surface of CHO cells (SARS-CoV-2, UniProt P0DTC2 14-1273)

Binder | median fluorescence intensity, fold over isotype control [fold over isotype]
B1 | 10.6
B2 | 9.26
B3 | 7.59
B4 | 22.8
B5 | 9.67
B6 | 10.8
B7 | 1.11
B8 | 31.5
B9 | 8.78
B10 | 8.3

Target: SARS-CoV-2 spike (S) protein, full length, wild type (SARS-CoV-2, UniProt P0DTC2 14-1208)

Binder | median fluorescence fold over isotype [fold over isotype]
B11 | 595
B12 | 1180
B13 | 770
B14 | 683
B15 | 902
B16 | 847
B17 | 690

Target: SARS-CoV-2 full length spike protein (wild type), conjugated to beads (SARS-CoV-2, UniProt P0DTC2 14-1208)

Binder | binding signal, bead assay [fold over isotype]
B18 | 526
B19 | 1.15
B20 | 602
B21 | 592
B22 | 487
B23 | 785
B24 | 552
